Test results: the supplement of paper PMC6757056
± gives the standard deviation of the averaged measurements.

B1: library; a variant is named by its letters at N, in order (parent)
chain: GCUGUCACCGGUGCUUGGUACGUUAUAUUCAGCCGGUCUGAUGAGUCUNNNNNNAGACGAAACAGC

Columns and labels:
(6R,S)-folinic acid [1] = variants of: B1; test: FACS-Seq fitted mean relative fluorescence mCherry/BFP without ligand (log10 relative fluorescence); HEK293T overexpressing SLC46A1; higher = higher reporter protein expression; details: without (6R,S)-folinic acid; ligand present: no
Outline: (§1)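 Sorting into 6 bins by mCherry/BFP followed 48 h of incubation with or without ligand. The cells were enriched HEK293T libraries lentivirally bearing an mCherry reporter with the ribozyme switch and an EF1α-BFP marker, and bin genomic DNA was PCR-amplified, barcoded and sequenced on MiSeq. Fluorescence is the fitted normal mean of the bin counts. Means were fitted on log10(mCherry/BFP), scaled to five spiked-in control ribozymes.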

(6R,S)-folinic acid [2] = variants of: B1; test: normalized RNA/DNA level without ligand (relative to sTRSVctl = 100) (log10 (% of sTRSVctl)); HEK293T overexpressing SLC46A1; higher = less ribozyme self-cleavage, higher mRNA level; details: without (6R,S)-folinic acid; ligand present: no
Outline: (§2)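 Library plasmids carrying ribozyme switches linked to mCherry, or to eGFP in some ligand experiments, were transfected into HEK293T at 4 µg per 6-well well, with any ligand added 1 h earlier. Seventy-two hours on, total RNA was extracted with EDTA and reverse-transcribed, amplified, barcoded and sequenced. RNA level was RNA over DNA reads normalized to a spiked-in non-cleaving sequence or to the top sequences, then scaled and log-transformed. The top set was 25 sequences, the transform was ×100 and log10, and sequences needed ≥100 DNA reads.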

(6R,S)-folinic acid [3] = variants of: B1; test: FACS-Seq fitted mean relative fluorescence mCherry/BFP with ligand (log10 relative fluorescence); HEK293T overexpressing SLC46A1; ligand concentration (+) FACS-Seq: 6 mM; higher = higher reporter protein expression; details: with (6R,S)-folinic acid; ligand present: yes
Outline: as §1

(6R,S)-folinic acid [4] = variants of: B1; test: normalized RNA/DNA level with ligand (relative to sTRSVctl = 100) (log10 (% of sTRSVctl)); HEK293T overexpressing SLC46A1; ligand concentration (+) RNA-Seq: 6 mM; higher = less ribozyme self-cleavage, higher mRNA level; details: with (6R,S)-folinic acid; ligand present: yes
Outline: as §2

| Variant | FACS-Seq fitted mean (log10) ((6R,S)-folinic acid [1]) | normalized RNA/DNA level without ligand (log10) ((6R,S)-folinic acid [2]) | FACS-Seq fitted mean (log10) ((6R,S)-folinic acid [3]) | normalized RNA/DNA level with ligand (log10) ((6R,S)-folinic acid [4]) |
| --- | --- | --- | --- | --- |
| AUAAAU | 0.45 ± 0.08 | 1.951 ± 0.017 | 0.359 ± 0.082 | 2.028 ± 0.007 |
| AUAAAA | 0.343 ± 0.0039 | 1.9901 ± 0.0019 | 0.263 ± 0.23 | 1.994 ± 0.016 |
| AGUCAA | 0.156 ± 0.066 | 1.962 ± 0.0074 | 0.225 ± 0.046 | 1.96 ± 0.053 |
| UUAGGA | 0.674 ± 0.033 | 1.879 ± 0.014 | 0.677 ± 0.022 | 2 ± 0.045 |
| UUAGGC | 0.366 ± 0.0042 | 1.974 ± 0.0042 | 0.465 ± 0.26 | 2 ± 0.058 |
| CGUUAA | 0.362 ± 0.031 | 1.97 ± 0.016 | 0.486 ± 0.18 | 1.98 ± 0.025 |
| UGGUUG | 0.266 ± 0.011 | 1.829 ± 0.014 | 0.626 ± 0.09 | 1.98 ± 0.015 |
| CUAAAA | 0.151 ± 0.029 | 1.98 ± 0.021 | 0.19 ± 0.12 | 1.98 ± 0.048 |
| CUAAAG | -0.0676 ± 0.063 | 1.913 ± 0.0067 | -0.0285 ± 0.2 | 2 ± 0.035 |
| UUAAGA | 0.166 ± 0.039 | 1.95 ± 0.024 | 0.272 ± 0.014 | 2.04 ± 0.029 |
| UUAAGG | 0.0635 ± 0.0074 | 1.855 ± 0.0022 | 0.25 ± 0.22 | 1.98 ± 0.025 |
| GGUAUG | 0.288 ± 0.015 | 1.986 ± 0.01 | 0.241 ± 0.14 | 2.01 ± 0.021 |
| GGUAUA | 0.316 ± 0.031 | 1.987 ± 0.0071 | 0.271 ± 0.15 | 2 ± 0.032 |
| CGUUGC | 0.557 ± 0.049 | 2.02 ± 0.025 | 0.358 ± 0.33 | 2.02 ± 0.047 |
| UUACGU | 0.339 ± 0.078 | 1.97 ± 0.0066 | 0.15 ± 0.074 | 2.01 ± 0.044 |
| GGGUUG | 0.344 ± 0.19 | 2.037 ± 0.0021 | 0.56 ± 0.17 | 2.05 ± 0.049 |
| UUAGAG | 0.029 ± 0.12 | 1.7074 ± 0.0017 | 0.476 ± 0.11 | 1.95 ± 0.045 |
| UUAGAA | 0.323 ± 0.038 | 1.913 ± 0.0022 | 0.278 ± 0.054 | 1.98 ± 0.038 |

| Variant | FACS-Seq fitted mean (log10) ((6R,S)-folinic acid [1]) | normalized RNA/DNA level without ligand (log10) ((6R,S)-folinic acid [2]) | FACS-Seq fitted mean (log10) ((6R,S)-folinic acid [3]) | normalized RNA/DNA level with ligand (log10) ((6R,S)-folinic acid [4]) |
| --- | --- | --- | --- | --- |
| UUAAAA | 0.578 ± 0.062 | 1.9319 ± 0.0016 | 0.669 ± 0.26 | 1.966 ± 0.017 |
| UUAAAG | 0.413 ± 0.085 | 1.822 ± 0.008 | 0.519 ± 0.17 | 1.94 ± 0.042 |
| UUAAAC | 0.248 ± 0.093 | 1.984 ± 0.0098 | 0.271 ± 0.092 | 1.99 ± 0.031 |
| CGUGGA | 0.378 ± 0.16 | 1.988 ± 0.014 | 0.668 ± 0.33 | 2.02 ± 0.043 |
| UGUGGU | 0.0696 ± 0.063 | 1.89 ± 0.022 | 0.265 ± 0.0042 | 2 ± 0.054 |
| UGUGGA | -0.112 ± 0.058 | 1.816 ± 0.0017 | 0.123 ± 0.11 | 2 ± 0.027 |
| UGUGGG | 0.109 ± 0.02 | 1.6031 ± 0.0006 | 0.695 ± 0.086 | 1.96 ± 0.017 |
| GUACUA | 0.314 ± 0.17 | 2.046 ± 0.0037 | 0.428 ± 0.14 | 2.04 ± 0.026 |
| GUACUU | 0.484 ± 0.059 | 2.034 ± 0.015 | 0.386 ± 0.2 | 2.04 ± 0.06 |
| GUACUC | 0.541 ± 0.13 | 2.051 ± 0.016 | 0.366 ± 0.17 | 2.041 ± 0.013 |
| UGUUCC | 0.382 ± 0.066 | 2.05 ± 0.023 | 0.146 ± 0.006 | 2.05 ± 0.062 |
| GUAGCU | 0.643 ± 0.11 | 2.009 ± 0.01 | 0.287 ± 0.14 | 1.998 ± 0.0026 |
| GUAAUA | -0.154 ± 0.025 | 1.996 ± 0.006 | 0.161 ± 0.059 | 1.97 ± 0.039 |
| GUAAUG | 0.394 ± 0.16 | 1.94 ± 0.023 | 0.532 ± 0.053 | 1.98 ± 0.038 |
| GUAAUC | 0.0594 ± 0.051 | 2.09 ± 0.023 | -0.00665 ± 0.0039 | 2.063 ± 0.0092 |
| CUAAUA | 0.179 ± 0.11 | 1.974 ± 0.0043 | 0.335 ± 0.36 | 1.982 ± 0.007 |
| AUAGGC | 0.336 ± 0.054 | 2.013 ± 0.012 | 0.59 ± 0.1 | 2.047 ± 0.016 |
| AUAGGG | -0.255 ± 0.066 | 1.599 ± 0.0044 | 0.286 ± 0.019 | 1.92 ± 0.025 |
